Earlier results as cited in paper PMC3176300.

Tests used:
Megalin = Megalin (UniProt P98164)
Sortilin (Homo sapiens) = Sortilin (Homo sapiens) (UniProt Q99523)
[1] = molecular target: α-Galactosidase A (Homo sapiens) (UniProt P06280); test: SPR
Chain of UniProt P06280 (P06280 32-429): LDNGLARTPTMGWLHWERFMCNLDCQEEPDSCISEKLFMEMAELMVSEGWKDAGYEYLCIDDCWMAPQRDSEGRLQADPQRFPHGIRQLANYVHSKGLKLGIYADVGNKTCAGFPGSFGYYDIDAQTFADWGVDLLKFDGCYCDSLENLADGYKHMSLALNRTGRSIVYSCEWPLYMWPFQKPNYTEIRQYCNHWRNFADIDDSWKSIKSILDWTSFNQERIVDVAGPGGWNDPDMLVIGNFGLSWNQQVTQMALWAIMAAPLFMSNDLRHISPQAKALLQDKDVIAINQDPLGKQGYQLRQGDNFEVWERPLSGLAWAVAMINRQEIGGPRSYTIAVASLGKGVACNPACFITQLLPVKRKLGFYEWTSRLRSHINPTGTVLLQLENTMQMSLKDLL

Chain of Megalin (P98164 26-4655): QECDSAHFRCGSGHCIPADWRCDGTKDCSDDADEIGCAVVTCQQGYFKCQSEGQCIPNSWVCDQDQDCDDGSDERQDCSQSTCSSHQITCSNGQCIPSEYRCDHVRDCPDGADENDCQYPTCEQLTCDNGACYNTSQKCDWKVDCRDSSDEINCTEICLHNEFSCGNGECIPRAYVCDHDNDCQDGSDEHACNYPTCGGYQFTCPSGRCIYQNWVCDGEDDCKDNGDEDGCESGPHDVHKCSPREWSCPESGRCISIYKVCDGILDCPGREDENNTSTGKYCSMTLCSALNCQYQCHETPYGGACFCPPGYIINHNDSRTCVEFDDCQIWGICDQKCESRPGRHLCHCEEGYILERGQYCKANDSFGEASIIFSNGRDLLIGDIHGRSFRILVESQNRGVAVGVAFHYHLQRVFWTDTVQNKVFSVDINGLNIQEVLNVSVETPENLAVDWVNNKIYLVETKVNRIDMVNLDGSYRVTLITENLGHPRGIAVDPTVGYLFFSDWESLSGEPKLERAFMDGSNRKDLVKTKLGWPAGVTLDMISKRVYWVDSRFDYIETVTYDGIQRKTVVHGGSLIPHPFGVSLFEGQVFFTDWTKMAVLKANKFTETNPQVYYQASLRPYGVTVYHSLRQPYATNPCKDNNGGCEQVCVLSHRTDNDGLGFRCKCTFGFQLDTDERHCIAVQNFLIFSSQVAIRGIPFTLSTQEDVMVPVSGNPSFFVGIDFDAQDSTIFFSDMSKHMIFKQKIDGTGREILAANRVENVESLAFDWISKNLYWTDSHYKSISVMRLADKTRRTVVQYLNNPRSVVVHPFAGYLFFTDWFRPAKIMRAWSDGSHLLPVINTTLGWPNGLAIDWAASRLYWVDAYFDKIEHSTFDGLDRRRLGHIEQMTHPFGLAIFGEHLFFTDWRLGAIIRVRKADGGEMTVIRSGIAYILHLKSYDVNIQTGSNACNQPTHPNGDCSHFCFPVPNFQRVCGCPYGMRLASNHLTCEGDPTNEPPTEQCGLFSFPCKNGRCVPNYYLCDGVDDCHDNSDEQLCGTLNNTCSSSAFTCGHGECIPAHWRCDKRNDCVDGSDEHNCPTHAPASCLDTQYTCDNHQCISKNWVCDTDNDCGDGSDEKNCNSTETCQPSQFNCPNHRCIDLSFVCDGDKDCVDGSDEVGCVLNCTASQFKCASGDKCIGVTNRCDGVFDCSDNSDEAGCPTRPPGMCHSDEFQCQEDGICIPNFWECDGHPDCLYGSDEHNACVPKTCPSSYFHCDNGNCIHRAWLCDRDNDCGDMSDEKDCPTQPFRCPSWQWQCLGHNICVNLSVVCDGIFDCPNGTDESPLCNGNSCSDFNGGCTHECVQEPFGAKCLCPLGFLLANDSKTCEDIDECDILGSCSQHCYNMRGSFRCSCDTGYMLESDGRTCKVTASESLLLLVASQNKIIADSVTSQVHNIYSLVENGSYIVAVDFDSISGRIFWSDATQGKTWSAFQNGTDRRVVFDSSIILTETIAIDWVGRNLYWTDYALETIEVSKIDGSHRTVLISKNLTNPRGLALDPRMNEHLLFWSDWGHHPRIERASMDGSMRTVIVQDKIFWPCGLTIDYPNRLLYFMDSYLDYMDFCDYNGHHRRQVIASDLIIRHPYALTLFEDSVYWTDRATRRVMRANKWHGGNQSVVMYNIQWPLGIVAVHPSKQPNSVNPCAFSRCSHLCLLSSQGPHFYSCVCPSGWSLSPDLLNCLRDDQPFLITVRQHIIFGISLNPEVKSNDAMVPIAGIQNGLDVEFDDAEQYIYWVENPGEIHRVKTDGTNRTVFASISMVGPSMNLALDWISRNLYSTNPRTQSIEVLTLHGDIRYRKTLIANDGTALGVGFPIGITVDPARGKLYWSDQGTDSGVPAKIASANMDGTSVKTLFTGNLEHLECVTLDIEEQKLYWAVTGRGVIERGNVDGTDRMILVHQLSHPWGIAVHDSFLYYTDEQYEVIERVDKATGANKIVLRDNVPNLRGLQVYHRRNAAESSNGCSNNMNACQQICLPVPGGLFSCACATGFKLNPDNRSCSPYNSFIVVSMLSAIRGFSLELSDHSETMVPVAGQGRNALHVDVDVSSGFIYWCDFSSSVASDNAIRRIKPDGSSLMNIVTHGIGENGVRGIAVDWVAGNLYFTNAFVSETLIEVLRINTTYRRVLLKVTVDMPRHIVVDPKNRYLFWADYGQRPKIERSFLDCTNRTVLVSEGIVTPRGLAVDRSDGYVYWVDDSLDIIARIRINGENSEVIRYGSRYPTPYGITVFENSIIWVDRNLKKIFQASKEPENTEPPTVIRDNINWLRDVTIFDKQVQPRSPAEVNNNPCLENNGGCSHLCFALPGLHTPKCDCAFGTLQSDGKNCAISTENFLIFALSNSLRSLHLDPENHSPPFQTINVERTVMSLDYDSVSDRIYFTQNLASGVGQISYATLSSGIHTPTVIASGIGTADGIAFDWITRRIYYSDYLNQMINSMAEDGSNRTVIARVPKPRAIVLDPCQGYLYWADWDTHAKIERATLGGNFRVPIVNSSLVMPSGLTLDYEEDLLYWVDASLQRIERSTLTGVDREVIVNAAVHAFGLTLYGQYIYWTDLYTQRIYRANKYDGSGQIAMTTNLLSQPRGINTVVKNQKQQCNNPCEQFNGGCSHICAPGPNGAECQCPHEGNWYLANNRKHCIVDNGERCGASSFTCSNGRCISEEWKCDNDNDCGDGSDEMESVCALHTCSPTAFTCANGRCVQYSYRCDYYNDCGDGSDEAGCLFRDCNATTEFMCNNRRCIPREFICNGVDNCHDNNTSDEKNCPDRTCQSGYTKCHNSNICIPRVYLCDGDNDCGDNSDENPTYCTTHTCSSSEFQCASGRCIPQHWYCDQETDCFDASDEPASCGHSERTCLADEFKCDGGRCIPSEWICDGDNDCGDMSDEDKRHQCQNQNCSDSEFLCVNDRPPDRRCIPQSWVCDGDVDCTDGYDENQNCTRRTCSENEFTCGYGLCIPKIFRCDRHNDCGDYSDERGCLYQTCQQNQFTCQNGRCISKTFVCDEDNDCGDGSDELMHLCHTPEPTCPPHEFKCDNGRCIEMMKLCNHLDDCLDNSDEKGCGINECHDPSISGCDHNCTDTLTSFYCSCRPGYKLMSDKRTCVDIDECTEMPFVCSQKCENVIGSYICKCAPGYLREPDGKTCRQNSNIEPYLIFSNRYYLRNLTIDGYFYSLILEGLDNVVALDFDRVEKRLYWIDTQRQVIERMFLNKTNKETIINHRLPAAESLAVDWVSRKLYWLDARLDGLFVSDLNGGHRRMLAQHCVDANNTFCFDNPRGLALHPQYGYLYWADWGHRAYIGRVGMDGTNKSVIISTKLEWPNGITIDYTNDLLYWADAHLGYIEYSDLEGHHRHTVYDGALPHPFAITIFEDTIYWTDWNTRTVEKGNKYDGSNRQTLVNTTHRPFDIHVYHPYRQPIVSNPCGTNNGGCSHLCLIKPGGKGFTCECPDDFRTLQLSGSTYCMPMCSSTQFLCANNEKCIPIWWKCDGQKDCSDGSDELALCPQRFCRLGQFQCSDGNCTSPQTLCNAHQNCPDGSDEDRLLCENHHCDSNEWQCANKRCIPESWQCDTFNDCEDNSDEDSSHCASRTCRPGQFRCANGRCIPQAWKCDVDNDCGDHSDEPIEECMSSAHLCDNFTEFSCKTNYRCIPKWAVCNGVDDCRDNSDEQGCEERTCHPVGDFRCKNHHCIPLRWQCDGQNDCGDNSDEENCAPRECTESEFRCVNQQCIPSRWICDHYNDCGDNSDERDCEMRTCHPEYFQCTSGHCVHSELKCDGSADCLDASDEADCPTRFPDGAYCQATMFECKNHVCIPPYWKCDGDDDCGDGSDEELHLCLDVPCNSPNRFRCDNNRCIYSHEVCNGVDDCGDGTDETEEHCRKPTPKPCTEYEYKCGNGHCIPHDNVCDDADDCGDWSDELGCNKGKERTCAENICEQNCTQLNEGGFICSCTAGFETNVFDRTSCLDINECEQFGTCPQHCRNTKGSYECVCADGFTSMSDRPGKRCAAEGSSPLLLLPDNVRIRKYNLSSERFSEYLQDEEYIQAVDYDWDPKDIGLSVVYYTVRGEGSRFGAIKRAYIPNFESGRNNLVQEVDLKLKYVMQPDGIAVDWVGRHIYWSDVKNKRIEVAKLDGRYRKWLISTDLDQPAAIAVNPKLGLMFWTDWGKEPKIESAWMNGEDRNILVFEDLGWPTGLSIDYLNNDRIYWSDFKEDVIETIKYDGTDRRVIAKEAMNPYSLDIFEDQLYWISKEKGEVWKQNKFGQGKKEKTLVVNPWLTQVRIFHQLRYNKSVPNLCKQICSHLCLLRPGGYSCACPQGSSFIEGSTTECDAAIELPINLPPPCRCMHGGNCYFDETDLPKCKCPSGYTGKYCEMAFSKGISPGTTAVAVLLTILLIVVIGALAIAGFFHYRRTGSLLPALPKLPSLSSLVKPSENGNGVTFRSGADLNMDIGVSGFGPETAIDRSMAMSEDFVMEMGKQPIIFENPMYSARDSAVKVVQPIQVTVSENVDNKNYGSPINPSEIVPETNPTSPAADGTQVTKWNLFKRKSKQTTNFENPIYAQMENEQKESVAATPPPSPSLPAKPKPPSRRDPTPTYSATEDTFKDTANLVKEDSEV

Kd (Megalin) | Kd (Sortilin (Homo sapiens)) | Kd [1] | Substance
8 nM | 78 nM | – | RAP (from UniProt P30533)
– | – | 600 nM | Megalin (from UniProt P98164)
